Assay results published in publication PMC7305299, “Nonsense-mediated mRNA decay factor UPF1 promotes aggresome formation” (Nature Communications, 2020).

Target: T1, FLAG-UPF1-HP (UniProt Q92900-2 1-1118, G495R | G497E, hyperphosphorylated in cells (detected with an anti-phospho-(S/T)Q antibody); sites not stated)
T1 construct: UPF1 with G495R and G497E in the helicase domain; also called FLAG-UPF1-(G495R/G497E); hyperphosphorylated UPF1; source: HEK293T, transiently transfected (pcDNA3-FLAG-UPF1-HP), in RNase A-treated cell extract
T1 sequence (looked up): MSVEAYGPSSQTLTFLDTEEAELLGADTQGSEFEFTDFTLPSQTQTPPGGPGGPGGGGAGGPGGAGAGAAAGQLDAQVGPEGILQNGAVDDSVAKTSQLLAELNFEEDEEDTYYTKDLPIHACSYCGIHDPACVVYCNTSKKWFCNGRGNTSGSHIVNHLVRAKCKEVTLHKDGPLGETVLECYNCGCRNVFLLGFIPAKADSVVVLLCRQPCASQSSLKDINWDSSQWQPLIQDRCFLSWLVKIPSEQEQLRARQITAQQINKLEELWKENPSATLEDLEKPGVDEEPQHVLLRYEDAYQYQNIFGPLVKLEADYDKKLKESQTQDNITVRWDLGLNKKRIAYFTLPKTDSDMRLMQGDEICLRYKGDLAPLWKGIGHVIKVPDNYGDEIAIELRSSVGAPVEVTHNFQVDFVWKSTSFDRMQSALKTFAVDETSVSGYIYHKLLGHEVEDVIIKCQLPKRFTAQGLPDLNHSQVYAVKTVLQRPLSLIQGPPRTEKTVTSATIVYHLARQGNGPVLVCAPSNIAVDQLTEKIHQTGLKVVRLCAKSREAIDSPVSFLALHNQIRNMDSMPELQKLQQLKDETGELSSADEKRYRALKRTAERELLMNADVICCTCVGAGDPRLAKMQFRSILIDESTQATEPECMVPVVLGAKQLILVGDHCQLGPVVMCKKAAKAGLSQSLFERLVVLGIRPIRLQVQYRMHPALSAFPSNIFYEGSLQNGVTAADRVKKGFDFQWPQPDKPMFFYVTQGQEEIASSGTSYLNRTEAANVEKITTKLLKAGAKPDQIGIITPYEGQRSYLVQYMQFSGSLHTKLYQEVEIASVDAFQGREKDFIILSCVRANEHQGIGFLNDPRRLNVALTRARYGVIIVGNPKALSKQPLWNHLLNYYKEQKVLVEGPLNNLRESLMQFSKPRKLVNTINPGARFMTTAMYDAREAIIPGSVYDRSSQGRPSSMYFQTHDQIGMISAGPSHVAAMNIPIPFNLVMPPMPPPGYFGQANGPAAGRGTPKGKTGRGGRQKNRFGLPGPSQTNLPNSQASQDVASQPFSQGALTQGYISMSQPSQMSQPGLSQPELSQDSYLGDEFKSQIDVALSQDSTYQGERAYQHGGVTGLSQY
Assay: co-IP; anti-FLAG IP of FLAG-UPF1 (WT or a variant) from RNase A-treated extracts of transiently transfected HEK293T cells; cells treated with DMSO or MG132 for 12 h (Fig. 5a,b), for polypeptidyl-puro with MG132 12 h and puromycin 1 h (Fig. 5d), with or without eEF1A1 siRNA (Fig. 5e); NET-2 buffer, 4 °C; western blotting
Conditions: partners not purified

fold more co-immunopurified than with UPF1-WT or UPF1-HP-12A: ~5 fold
B1: DCP1A, cellular (natural protein, human (endogenous in HEK293T), UniProt Q9NPI6 1-582, looked up)
chain: MEALSRAGQEMSLAALKQHDPYITSIADLTGQVALYTFCPKANQWEKTDIEGTLFVYRRSASPYHGFTIVNRLNMHNLVEPVNKDLEFQLHEPFLLYRNASLSIYSIWFYDKNDCHRIAKLMADVVEEETRRSQQAARDKQSPSQANGCSDHRPIDILEMLSRAKDEYERNQMGDSNISSPGLQPSTQLSNLGSTETLEEMPSGSQDKSAPSGHKHLTVEELFGTSLPKEQPAVVGLDSEEMERLPGDASQKEPNSFLPFPFEQLGGAPQSETLGVPSAAHHSVQPEITTPVLITPASITQSNEKHAPTYTIPLSPVLSPTLPAEAPTAQVPPSLPRNSTMMQAVKTTPRQRSPLLNQPVPELSHASLIANQSPFRAPLNVTNTAGTSLPSVDLLQKLRLTPQHDQIQTQPLGKGAMVASFSPAAGQLATPESFIEPPSKTAAARVAASASLSNMVLAPLQSMQQNQDPEVFVQPKVLSSAIPVAGAPLVTATTTAVSSVLLAPSVFQQTVTRSSDLERKASSPSPLTIGTPESQRKPSIILSKSQLQDTLIHLIKNDSSFLSTLHEVYLQVLTKNKDNHNL
notes: DCP1A (component of the decapping complex), cellular protein co-immunopurified from HEK293T extracts; source: endogenous, HEK293T extract
